In patent US20110117113A1, “IMMUNOGLOBULIN SINGLE VARIABLE DOMAIN DIRECTED AGAINST HUMAN CXCR4 AND OTHER CELL ASSOCIATED PROTEINS AND METHODS TO GENERATE THEM” (priority 2009, published 2011):

Tests used:
Assay in all cases: Shotgun mutagenesis epitope mapping, immunofluorescence on CXCR4 mutation library in HEK-293T
Type in all cases: binding
[1] = biological target: T1, CXCR4 mutation library (Human CXCR4-short) (Homo sapiens, UniProt P61073, C218R/E179V/S351T); conditions: residue E179; mutations C218R, E179V, S351T; normalized to wild type; 3 experiments (+/−range)
T1 construct: expressed in transfected cells; host or cells: HEK-293T, transient, 384-well
Text: (§1) Method: See e.g. Willis, et al. 2008. Virus-like particles as quantitative probes of membrane protein interactions. Biochemistry 47:6988-6990. In short, the method comprises the following steps:
(§2) Create comprehensive mutation library • Start with a cDNA in eukaryotic expression plasmid • Create library where every amino acid is individually mutated
(§3) Express each clone within living cells in 384-well microplates
(§4) Detect structure and/or function of proteins
(§5) • Parental plasmid: Human CXCR4-short (SEQ ID NO: 6, 352 amino acids) • Epitope tags: N-terminal Flag (to detect surface expression), C-terminal V5 (to detect full-length translation) • Cell types used for immunofluorescence assays: HEK-293T
(§6) The immunofluorescence assay conditions (to detect binding) were optimized for the nanbodies to be tested. In short, 384-well immunofluorescence (IF) assay using HEK-293T cells transiently was transfected with different concentrations of CXCR4 DNA. The plate was first incubated with different concentrations of either Nanobody 238D2 or 238D4, then with 9E10, and finally with Cy3. The commercially-available anti-CXCR4 MAb 12G5 was used as an IF control.
(§7) Mapping Nanobody Binding to CXCR4 Mutation Library: The entire library was screened in triplicate with each Nanobody. The data was background-subtracted and normalized to wild type reactivity and averaged across the repeats. Nanobody binding was plotted as a function of average surface expression, and measured by immunoreactivity of an N-terminal Flag epitope tag. Thresholds of 60% Flag and 30% Nanobody were used to identify critical clones. Using standard IF conditions, we identified 1 critical residue (2 critical clones). Using increased stringency assay conditions (high salt), we identified 5 additional residues (Tables C-3 and C-4).

[2] = biological target: T2, CXCR4 mutation library (Human CXCR4-short) (Homo sapiens, UniProt P61073, D187A/Y157C); conditions: residue D187; mutations D187A, Y157C; normalized to wild type; 3 experiments (+/−range)
T2 construct: expressed in transfected cells; host or cells: HEK-293T, transient, 384-well
Text: as §1, §2, §3, §4, §5, §6, §7

[3] = biological target: T3, CXCR4 mutation library (Human CXCR4-short) (Homo sapiens, UniProt P61073, D187V); conditions: residue D187; mutation D187V; normalized to wild type; 3 experiments (+/−range)
T3 construct: expressed in transfected cells; host or cells: HEK-293T, transient, 384-well
Text: as §1, §2, §3, §4, §5, §6, §7

[4] = biological target: T4, CXCR4 mutation library (Human CXCR4-short) (Homo sapiens, UniProt P61073, E277A/I245V/N298S); conditions: residue E277; mutations E277A, I245V, N298S; normalized to wild type; 3 experiments (+/−range); 238D2 critical residues under high stringency
T4 construct: expressed in transfected cells; host or cells: HEK-293T, transient, 384-well
Text: as §1, §2, §3, §4, §5, §6, §7

[5] = biological target: T5, CXCR4 mutation library (Human CXCR4-short) (Homo sapiens, UniProt P61073, E277G); conditions: residue E277; mutation E277G; normalized to wild type; 3 experiments (+/−range); 238D2 critical residues under high stringency
T5 construct: expressed in transfected cells; host or cells: HEK-293T, transient, 384-well
Text: as §1, §2, §3, §4, §5, §6, §7

[6] = biological target: T6, CXCR4 mutation library (Human CXCR4-short) (Homo sapiens, UniProt P61073, F189L/S319P/V155E); conditions: residue F189; mutations F189L, S319P, V155E; normalized to wild type; 3 experiments (+/−range)
T6 construct: expressed in transfected cells; host or cells: HEK-293T, transient, 384-well
Text: as §1, §2, §3, §4, §5, §6, §7

[7] = biological target: T7, CXCR4 mutation library (Human CXCR4-short) (Homo sapiens, UniProt P61073, F189S/K308R); conditions: residue F189; mutations F189S, K308R; normalized to wild type; 3 experiments (+/−range)
T7 construct: expressed in transfected cells; host or cells: HEK-293T, transient, 384-well
Text: as §1, §2, §3, §4, §5, §6, §7

[8] = biological target: T8, CXCR4 mutation library (Human CXCR4-short) (Homo sapiens, UniProt P61073, F189V); conditions: residue F189; mutation F189V; normalized to wild type; 3 experiments (+/−range)
T8 construct: expressed in transfected cells; host or cells: HEK-293T, transient, 384-well
Text: as §1, §2, §3, §4, §5, §6, §7

[9] = biological target: T9, CXCR4 mutation library (Human CXCR4-short) (Homo sapiens, UniProt P61073, K230E/S178R); conditions: residue S178; mutations K230E, S178R; normalized to wild type; 3 experiments (+/−range)
T9 construct: expressed in transfected cells; host or cells: HEK-293T, transient, 384-well
Text: as §1, §2, §3, §4, §5, §6, §7

[10] = biological target: T10, CXCR4 mutation library (Human CXCR4-short) (Homo sapiens, UniProt P61073, N192K); conditions: residue N192; mutation N192K; normalized to wild type; 3 experiments (+/−range); 238D2 critical residues under high stringency
T10 construct: expressed in transfected cells; host or cells: HEK-293T, transient, 384-well
Text: as §1, §2, §3, §4, §5, §6, §7

[11] = biological target: T11, CXCR4 mutation library (Human CXCR4-short) (Homo sapiens, UniProt P61073, P163L/S178I); conditions: residue S178; mutations P163L, S178I; normalized to wild type; 3 experiments (+/−range)
T11 construct: expressed in transfected cells; host or cells: HEK-293T, transient, 384-well
Text: as §1, §2, §3, §4, §5, §6, §7

[12] = biological target: T12, CXCR4 mutation library (Human CXCR4-short) (Homo sapiens, UniProt P61073, P191T); conditions: residue P191; mutation P191T; normalized to wild type; 3 experiments (+/−range); 238D2 critical residues under high stringency
T12 construct: expressed in transfected cells; host or cells: HEK-293T, transient, 384-well
Text: as §1, §2, §3, §4, §5, §6, §7

[13] = biological target: T13, CXCR4 mutation library (Human CXCR4-short) (Homo sapiens, UniProt P61073, S178C); conditions: residue S178; mutation S178C; normalized to wild type; 3 experiments (+/−range)
T13 construct: expressed in transfected cells; host or cells: HEK-293T, transient, 384-well
Text: as §1, §2, §3, §4, §5, §6, §7

[14] = biological target: T14, CXCR4 mutation library (Human CXCR4-short) (Homo sapiens, UniProt P61073, V196E); conditions: residue V196; mutation V196E; normalized to wild type; 3 experiments (+/−range); 238D2 critical residues under high stringency
T14 construct: expressed in transfected cells; host or cells: HEK-293T, transient, 384-well
Text: as §1, §2, §3, §4, §5, §6, §7

[15] = biological target: T15, CXCR4 mutation library (Human CXCR4-short) (Homo sapiens, UniProt P61073, W195R); conditions: residue W195; mutation W195R; normalized to wild type; 3 experiments (+/−range); 238D2 critical residues under high stringency
T15 construct: expressed in transfected cells; host or cells: HEK-293T, transient, 384-well
Text: as §1, §2, §3, §4, §5, §6, §7

[16] = system: CXCR4 mutation library (Human CXCR4-short)
Text: as §1, §2, §3, §4, §5, §6, §7

T14 sequence (P61073 whole entry V196E): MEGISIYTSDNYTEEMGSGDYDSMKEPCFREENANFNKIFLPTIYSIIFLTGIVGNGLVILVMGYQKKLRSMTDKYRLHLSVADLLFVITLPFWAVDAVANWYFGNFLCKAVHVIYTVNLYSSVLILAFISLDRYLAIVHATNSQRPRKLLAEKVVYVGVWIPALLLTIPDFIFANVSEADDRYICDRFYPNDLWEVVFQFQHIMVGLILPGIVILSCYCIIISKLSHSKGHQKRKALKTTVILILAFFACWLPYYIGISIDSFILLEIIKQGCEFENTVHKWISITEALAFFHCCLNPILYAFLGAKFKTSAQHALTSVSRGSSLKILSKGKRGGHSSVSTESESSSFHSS
T4 sequence (P61073 whole entry I245V/E277A/N298S): as the sequence (P61073 whole entry V196E) above, with E196V, I245V, E277A, N298S counted along it
T7 sequence (P61073 whole entry F189S/K308R): as the sequence (P61073 whole entry V196E) above, with F189S, E196V, K308R counted along it
T10 sequence (P61073 whole entry N192K): as the sequence (P61073 whole entry V196E) above, with N192K, E196V counted along it
T8 sequence (P61073 whole entry F189V): as the sequence (P61073 whole entry V196E) above, with F189V, E196V counted along it
T13 sequence (P61073 whole entry S178C): as the sequence (P61073 whole entry V196E) above, with S178C, E196V counted along it
T3 sequence (P61073 whole entry D187V): as the sequence (P61073 whole entry V196E) above, with D187V, E196V counted along it
T5 sequence (P61073 whole entry E277G): as the sequence (P61073 whole entry V196E) above, with E196V, E277G counted along it
T11 sequence (P61073 whole entry P163L/S178I): as the sequence (P61073 whole entry V196E) above, with P163L, S178I, E196V counted along it
T6 sequence (P61073 whole entry V155E/F189L/S319P): as the sequence (P61073 whole entry V196E) above, with V155E, F189L, E196V, S319P counted along it
T2 sequence (P61073 whole entry Y157C/D187A): as the sequence (P61073 whole entry V196E) above, with Y157C, D187A, E196V counted along it
T9 sequence (P61073 whole entry S178R/K230E): as the sequence (P61073 whole entry V196E) above, with S178R, E196V, K230E counted along it
T12 sequence (P61073 whole entry P191T): as the sequence (P61073 whole entry V196E) above, with P191T, E196V counted along it
T1 sequence (P61073 whole entry E179V/C218R/S351T): as the sequence (P61073 whole entry V196E) above, with E179V, E196V, C218R, S351T counted along it
T15 sequence (P61073 whole entry W195R): as the sequence (P61073 whole entry V196E) above, with W195R, E196V counted along it

B1: 238D2: monovalent anti CXCR4 Nanobody, SEQ ID NO: 2 (protein)
VHH: EVQLVESGGGLVQTGGSLRLSCAASGFTFSSYAMSWVRQAPGKGLEWVSGIKSSGDSTRYAGSVKGRFTISRDNAKNMLYLQMYSLKPEDTAVYYCAKSRVSRTGLYTYDNRGQGTQVTVSS
modifications: Nanobody
% immunofluoresence, clone 414 [1]: 71.1 (6.7) % | % immunofluoresence, clone 3728 [2]: 77.1 (18.2) % | % immunofluoresence, clone 2084 [3]: 93.6 (5.2) % | % immunofluoresence, clone 185 [4]: 35.5 (12.3) % | % immunofluoresence, clone 3622 [5]: 19.5 (11.9) % | % immunofluoresence, clone 465 [6]: 31.8 (16.2) % | % immunofluoresence, clone 913 [7]: −32.6 (18.7) % | % immunofluoresence, clone 1129 [8]: −1.9 (24.2) % | % immunofluoresence, clone 1057 [9]: 54.6 (5.8) % | % immunofluoresence, clone 914 [10]: 8.3 (3.6) % | % immunofluoresence, clone 709 [11]: 64.1 (19.6) % | % immunofluoresence, clone 2184 [12]: 15.8 (5.4) % | % immunofluoresence, clone 2396 [13]: 44.9 (13.4) % | % immunofluoresence, clone 2270 [14]: 20.6 (32.9) % | % immunofluoresence, clone 3630 [15]: 10.0 (10.4) % | average nanobody reactivity, residue N192 ([16]; all clones containing a mutation at N192, * high stringency conditions): 8.3* | average nanobody reactivity, residue P191 ([16]; all clones containing a mutation at P191, * high stringency conditions): 15.8* | average nanobody reactivity, residue V196 ([16]; all clones containing a mutation at V196, * high stringency conditions): 20.6* | average nanobody reactivity, residue W195 ([16]; all clones containing a mutation at W195, * high stringency conditions): 10.0* | average nanobody reactivity, residue E277 ([16]; average of all clones containing a mutation at E277, * high stringency conditions): 27.5* | average nanobody reactivity, residue F189 ([16]; average of all clones containing a mutation at F189): −0.9
